Experimental data taken from the supplement of paper PMC10567573.

B1: PLK2 (parent)
chain: YAELGQCSVFPATDAPEQFISQVT
B2: ADD1 (parent)
chain: GEGTGSPPKWQIGEQEFEALMRML

Variants of: B1
Assay: protein stability index of a GFP-peptide fusion (GPS, HEK-293T) (PSI 1-6); higher = more stable
Conditions: c terminus: a fixed tail appended
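Note: lentivirally expressed fusions sorted by FACS into six bins by GFP to DsRed ratio, PSI derived from sequencing read proportions per bin multiplied by bin number.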

Protein stability index of substitutions, site by site:
Q6: F 2.14 | S 2.42 | V 1.94 | D 3.3 | K 2.05 | P 2.26 | M 1.54 | Y 1.95 | G 2.04 | N 2.28
L4: A 2.33 | S 2.86 | F 2.5 | R 1.99 | I 2.5 | Y 2.06 | Q 3.62 | E 4.42 | H 3.25
A2: S 3.15 | K 3.47 | C 1.92
Q18: V 2.49 | D 2.98 | L 2 | G 2.82 | P 2.01 | C 1.84 | Y 2.26
V9: A 2.36 | H 2.69 | N 3.02 | E 3.64 | M 1.98 | K 2.88 | P 2.41 | I 2.62
T13: N 2.5 | E 3.45 | Y 1.62 | V 2.2 | A 2.49 | I 1.81 | H 2.2 | Q 2.57 | P 2.17
C7: Y 2.12 | L 1.69 | G 2.63 | H 1.91 | I 1.97 | S 1.87 | N 1.89 | T 2.87 | P 3.45 | F 1.78 | E 3.9
S21: A 1.64 | L 2.59 | Y 1.57 | T 2.49 | G 2.26 | M 3.09
S8: E 3.17 | T 2.28 | W 3.17 | D 3.06 | R 1.9 | L 1.62
V23: Y 1.98 | G 2.52 | S 2.96 | D 3.06 | K 2.38 | L 1.91 | W 2.39 | I 1.74
P16: F 1.64 | L 1.84 | H 1.58 | S 2.33 | W 2.84 | C 2.04 | E 2.66
T24: C 1.31 | A 1.59 | Y 2 | R 2.14
D14: Y 2.56 | F 2.04 | G 2 | S 2.09 | L 1.62 | I 2.02 | N 2.13 | V 1.78
P11: N 2.2 | L 2.03 | A 2.14 | F 3.39 | Y 2.31 | I 3.28
Y1: E 4.52 | P 4.5 | S 4.09 | A 4.32 | L 3.54 | N 4.46 | W 2.84
E17: A 1.92 | S 2.06 | G 2.15
A12: M 1.72 | R 1.63 | V 2.1 | I 2.07 | T 2.22 | G 2.39 | F 2.18 | E 3.42 | Y 1.95 | C 1.87
G5: E 3.81 | S 2.14 | N 2.47 | C 2.24 | H 2.52 | F 2.5 | W 3.46 | R 2.02 | V 2.21 | Y 2.22
Q22: M 1.73 | L 1.7 | T 2.1 | E 3.2 | P 2.47 | N 2.31
F19: N 2.92 | S 2.01 | V 2.28 | G 2.38 | A 2.19 | H 3.16
A15: R 2.21 | D 2.27 | E 2.6 | Y 2.13 | P 2.47 | Q 2.17 | H 2.58 | W 2.29
I20: P 2.24 | Q 2.31 | W 1.27 | R 2.53 | H 2.96 | M 2.35
E3: K 2.17 | T 1.98 | V 2.31 | Q 2.02 | P 2.27 | M 1.97 | W 1.66 | D 2.19 | G 1.85
F10: S 3.61 | R 3.18 | H 3.43 | D 4.2 | E 3.68 | Q 3.46 | I 2.87 | C 3.07

Variants of: B2
Assay: as above
Conditions: c terminus: a fixed tail appended

Protein stability index: each site, then its substitutions
E2: R 3.16 | H 2.96 | D 2.79 | T 3.33 | Q 3.53 | G 3.06 | P 3.06 | N 2.77 | V 3.94 | Y 2.28 | W 2.8 | K 2.3 | L 3.15 | C 3.14 | F 2.73 | S 2.73 | M 2.91 | I 4.01
K9: E 3.82 | H 3.08 | F 2.8 | A 3.76 | D 3.33 | G 3.14 | I 2.58 | C 2.28
G1: S 2.99 | E 3.57 | F 3.06 | K 2.91 | H 3.1 | V 2.49 | C 2.88 | P 3.26 | L 3.32 | Q 3.24 | R 3.26 | N 3.51 | D 3.66 | A 3.28 | Y 3.13 | I 2.92 | W 2.54 | M 2.71 | T 2.94
S6: K 2.12 | W 2.19 | C 2.75 | Q 2.85 | N 2.8 | G 2.55 | I 2.75 | E 3.45 | F 1.88 | D 3.25 | R 3.75 | A 2.87 | H 2.76 | L 3.03 | T 2.68 | V 2.46 | M 3.91 | Y 2.59 | P 2.95
P7: S 2.45 | D 3.09 | E 3.04 | Q 3.04 | F 3.61 | W 2.08 | V 2.62 | T 2.23 | A 2.92 | G 2.52 | H 2.89 | M 2.33 | I 2.46 | L 2.33 | R 2.63 | N 2.88 | K 3.23 | C 2.59 | Y 2.14
P8: I 2.31 | C 2.27 | H 2.56 | K 2.52 | D 3.84 | M 2.63 | W 2.29 | N 3.24 | Q 2.79 | E 3.66 | S 2.82 | A 3.07 | F 2.36 | V 2.2 | R 3.14 | G 3 | Y 2.49 | L 2.6 | T 2.85
G5: F 2.46 | M 2.4 | R 2.77 | C 2.86 | N 3.28 | H 3.12 | Q 3.49 | Y 3.02 | E 3.21 | K 2.15 | S 3.01 | V 3.09 | L 2.9 | W 2.21 | D 3.15 | I 2.74 | T 3 | A 3.39 | P 2.83
T4: P 3.06 | W 2.36 | S 3.08 | Q 3.08 | V 2.98 | M 3.01 | C 2.94 | K 2.13 | E 3.51 | I 2.75 | R 3.44 | G 3.14 | H 3.19 | F 2.35 | D 2.96 | A 3.63 | N 3.07 | L 3.38 | Y 3.26
G3: Q 3.8 | A 3.42 | I 3 | F 2.89 | T 3.54 | N 3.51 | S 2.87 | L 3.45 | Y 3.63 | V 3.41 | H 2.94 | P 3.14 | R 3.14 | E 3.07 | C 3.6 | W 2.49 | D 3.19 | M 3.01 | K 2.64
